Measurements published in US10294487B2, “Methods and compositions involving ALS variants with native substrate preference” (E I DU PONT DE NEMOURS AND COMPANY, priority 2012, dated 2019).

Legend:
soybean plants [1] = assay: Chlorsulfuron spray test of transgenic T1 soybean plants; assay type: in vivo; conditions: chlorsulfuron 3 g ai/ha foliar; homozygous T1 plants; 8 days after treatment; 0=no effect, 100=dead plant
Protocol: T1 plants, each having an ALS variant transgene, were grown to the V1 to V2 growth stage and then sprayed with commercial chlorsulfuron formulation at a rate of 3 g ai/ha. All chlorsulfuron treatments were applied foliarly with 0.25% nonionic surfactant in a spray volume of 374 L/ha. Individual plants were compared to untreated plants of similar genetic background, evaluated for herbicide response at eight days after treatment and assigned a visual response score from 0 to 100% injury (0=no effect to 100=dead plant at day 8).
Results in Table 8 list the lowest injury among plants of a single event for constructs containing the listed expression cassette. The amino acid substituted ALS variants provided more protection than the overexpression of the native ALS gene. Seed was produced from a number of T1 plants and advanced to more extensive herbicide testing in the T2 generation.

soybean plants [2] = assay: Spray test of homozygous transgenic soybean plants with five ALS-inhibitor herbicides; assay type: in vivo; conditions: homozygous T1 or T2 plants; for Lowest % injury Chlorimuron: chlorimuron 32 g ai/ha foliar; for Lowest % injury Imazapyr: imazapyr 4 g ai/ha foliar; for Lowest % injury Rimsulfuron: rimsulfuron 8 g ai/ha foliar; for Lowest % injury Thifensulfuron-methyl: thifensulfuron-methyl 16 g ai/ha foliar; for Lowest % injury Tribenuron-methyl: tribenuron-methyl 16 g ai/ha foliar
Protocol: T1 or T2 soybean plants were evaluated with qPCR to confirm they were homozygous for the transgene. Plants were sprayed at the V1 to V2 growth stage with the commercial formulations of chlorimuron (32 g ai/ha), tribenuron-methyl (16 g ai/ha), thifensulfuron-methyl (16 g ai/ha), rimsulfuron (8 g ai/ha), and imazapyr (4 g ai/ha). Each herbicide was applied foliarly with nonionic surfactant in a spray volume of 374 L/ha. The herbicide response for individual plants was determined by comparing to untreated plants of similar genetic background. Visual injury was scored on a scale of 0 to 100% injury (0=no effect to 100=dead plant). The lowest response for four treated plants of a single event from each construct with the listed expression cassette is reported.

B1: UBQ10: GM-ALS_A103T_P178S_D357E: UBQ10 promoter driving ALS variant SEQ ID NO 8 in transgenic soybean (protein)
chain: MAATASRTTRFSSSSSHPTFPKRITRSTLPLSHQTLTKPNHALKIKCSISKPPTAAPFTKEAPTTEPFVSRFASGEPRKGADILVEALERQGVTTVFAYPGGTSMEIHQALTRSAAIRNVLPRHEQGGVFAAEGYARSSGLPGVCIATSGPGATNLVSGLADALMDSVPVVAITGQVSRRMIGTDAFQETPIVEVSRSITKHNYLILDVDDIPRVVAEAFFVATSGRPGPVLIDIPKDVQQQLAVPNWDEPVNLPGYLARLPRPPAEAQLEHIVRLIMEAQKPVLYVGGGSLNSSAELRRFVELTGIPVASTLMGLGTFPIGDEYSLQMLGMHGTVYANYAVDNSDLLLAFGVRFDERVTGKLEAFASRAKIVHIDIDSAEIGKNKQAHVSVCADLKLALKGINMILEEKGVEGKFDLGGWREEINVQKHKFPLGYKTFQDAISPQHAIEVLDELTNGDAIVSTGVGQHQMWAAQFYKYKRPRQWLTSGGLGAMGFGLPAAIGAAVANPGAVVVDIDGDGSFIMNVQELATIRVENLPVKILLLNNQHLGMVVQWEDRFYKSNRAHTYLGDPSSESEIFPNMLKFADACGIPAARVTKKEELRAAIQRMLDTPGPYLLDVIVPHQEHVLPMIPSNGSFKDVITEGDGRTRY
- Lowest % injury (soybean plants [1]): 75%
- Lowest % injury Chlorimuron (soybean plants [2]): 5%
- Lowest % injury Imazapyr (soybean plants [2]): 50%
- Lowest % injury Rimsulfuron (soybean plants [2]): 80%
- Lowest % injury Thifensulfuron-methyl (soybean plants [2]): 0%
- Lowest % injury Tribenuron-methyl (soybean plants [2]): 55%

B2: SAMS: GM-ALS_A103T_P178S: SAMS promoter driving ALS variant SEQ ID NO 7 in transgenic soybean (protein)
chain: MAATASRTTRFSSSSSHPTFPKRITRSTLPLSHQTLTKPNHALKIKCSISKPPTAAPFTKEAPTTEPFVSRFASGEPRKGADILVEALERQGVTTVFAYPGGTSMEIHQALTRSAAIRNVLPRHEQGGVFAAEGYARSSGLPGVCIATSGPGATNLVSGLADALMDSVPVVAITGQVSRRMIGTDAFQETPIVEVSRSITKHNYLILDVDDIPRVVAEAFFVATSGRPGPVLIDIPKDVQQQLAVPNWDEPVNLPGYLARLPRPPAEAQLEHIVRLIMEAQKPVLYVGGGSLNSSAELRRFVELTGIPVASTLMGLGTFPIGDEYSLQMLGMHGTVYANYAVDNSDLLLAFGVRFDDRVTGKLEAFASRAKIVHIDIDSAEIGKNKQAHVSVCADLKLALKGINMILEEKGVEGKFDLGGWREEINVQKHKFPLGYKTFQDAISPQHAIEVLDELTNGDAIVSTGVGQHQMWAAQFYKYKRPRQWLTSGGLGAMGFGLPAAIGAAVANPGAVVVDIDGDGSFIMNVQELATIRVENLPVKILLLNNQHLGMVVQWEDRFYKSNRAHTYLGDPSSESEIFPNMLKFADACGIPAARVTKKEELRAAIQRMLDTPGPYLLDVIVPHQEHVLPMIPSNGSFKDVITEGDGRTRY
- Lowest % injury (soybean plants [1]): 80%

B3: SAMS: GM-ALS_P178A: SAMS promoter driving ALS variant SEQ ID NO 9 in transgenic soybean (protein)
chain: MAATASRTTRFSSSSSHPTFPKRITRSTLPLSHQTLTKPNHALKIKCSISKPPTAAPFTKEAPTTEPFVSRFASGEPRKGADILVEALERQGVTTVFAYPGGASMEIHQALTRSAAIRNVLPRHEQGGVFAAEGYARSSGLPGVCIATSGPGATNLVSGLADALMDSVPVVAITGQVARRMIGTDAFQETPIVEVSRSITKHNYLILDVDDIPRVVAEAFFVATSGRPGPVLIDIPKDVQQQLAVPNWDEPVNLPGYLARLPRPPAEAQLEHIVRLIMEAQKPVLYVGGGSLNSSAELRRFVELTGIPVASTLMGLGTFPIGDEYSLQMLGMHGTVYANYAVDNSDLLLAFGVRFDDRVTGKLEAFASRAKIVHIDIDSAEIGKNKQAHVSVCADLKLALKGINMILEEKGVEGKFDLGGWREEINVQKHKFPLGYKTFQDAISPQHAIEVLDELTNGDAIVSTGVGQHQMWAAQFYKYKRPRQWLTSGGLGAMGFGLPAAIGAAVANPGAVVVDIDGDGSFIMNVQELATIRVENLPVKILLLNNQHLGMVVQWEDRFYKSNRAHTYLGDPSSESEIFPNMLKFADACGIPAARVTKKEELRAAIQRMLDTPGPYLLDVIVPHQEHVLPMIPSNGSFKDVITEGDGRTRY
- Lowest % injury (soybean plants [1]): 0%
- Lowest % injury Chlorimuron (soybean plants [2]): 0%
- Lowest % injury Rimsulfuron (soybean plants [2]): 80%
- Lowest % injury Thifensulfuron-methyl (soybean plants [2]): 25%
- Lowest % injury Tribenuron-methyl (soybean plants [2]): 80%

B4: SAMS: GM-ALS W555L: SAMS promoter driving ALS variant SEQ ID NO 26 in transgenic soybean (protein)
chain: MAATASRTTRFSSSSSHPTFPKRITRSTLPLSHQTLTKPNHALKIKCSISKPPTAAPFTKEAPTTEPFVSRFASGEPRKGADILVEALERQGVTTVFAYPGGASMEIHQALTRSAAIRNVLPRHEQGGVFAAEGYARSSGLPGVCIATSGPGATNLVSGLADALMDSVPVVAITGQVPRRMIGTDAFQETPIVEVSRSITKHNYLILDVDDIPRVVAEAFFVATSGRPGPVLIDIPKDVQQQLAVPNWDEPVNLPGYLARLPRPPAEAQLEHIVRLIMEAQKPVLYVGGGSLNSSAELRRFVELTGIPVASTLMGLGTFPIGDEYSLQMLGMHGTVYANYAVDNSDLLLAFGVRFDDRVTGKLEAFASRAKIVHIDIDSAEIGKNKQAHVSVCADLKLALKGINMILEEKGVEGKFDLGGWREEINVQKHKFPLGYKTFQDAISPQHAIEVLDELTNGDAIVSTGVGQHQMWAAQFYKYKRPRQWLTSGGLGAMGFGLPAAIGAAVANPGAVVVDIDGDGSFIMNVQELATIRVENLPVKILLLNNQHLGMVVQLEDRFYKSNRAHTYLGDPSSESEIFPNMLKFADACGIPAARVTKKEELRAAIQRMLDTPGPYLLDVIVPHQEHVLPMIPSNGSFKDVITEGDGRTRY
- Lowest % injury (soybean plants [1]): 80%

B5: SAMS: GM-ALS_A103T_P178S_D357E: SAMS promoter driving ALS variant SEQ ID NO 8 in transgenic soybean (protein)
chain: MAATASRTTRFSSSSSHPTFPKRITRSTLPLSHQTLTKPNHALKIKCSISKPPTAAPFTKEAPTTEPFVSRFASGEPRKGADILVEALERQGVTTVFAYPGGTSMEIHQALTRSAAIRNVLPRHEQGGVFAAEGYARSSGLPGVCIATSGPGATNLVSGLADALMDSVPVVAITGQVSRRMIGTDAFQETPIVEVSRSITKHNYLILDVDDIPRVVAEAFFVATSGRPGPVLIDIPKDVQQQLAVPNWDEPVNLPGYLARLPRPPAEAQLEHIVRLIMEAQKPVLYVGGGSLNSSAELRRFVELTGIPVASTLMGLGTFPIGDEYSLQMLGMHGTVYANYAVDNSDLLLAFGVRFDERVTGKLEAFASRAKIVHIDIDSAEIGKNKQAHVSVCADLKLALKGINMILEEKGVEGKFDLGGWREEINVQKHKFPLGYKTFQDAISPQHAIEVLDELTNGDAIVSTGVGQHQMWAAQFYKYKRPRQWLTSGGLGAMGFGLPAAIGAAVANPGAVVVDIDGDGSFIMNVQELATIRVENLPVKILLLNNQHLGMVVQWEDRFYKSNRAHTYLGDPSSESEIFPNMLKFADACGIPAARVTKKEELRAAIQRMLDTPGPYLLDVIVPHQEHVLPMIPSNGSFKDVITEGDGRTRY
- Lowest % injury (soybean plants [1]): 80%

B6: UBQ10: GM-ALS_W555L: UBQ10 promoter driving ALS variant SEQ ID NO 26 in transgenic soybean (protein)
chain: MAATASRTTRFSSSSSHPTFPKRITRSTLPLSHQTLTKPNHALKIKCSISKPPTAAPFTKEAPTTEPFVSRFASGEPRKGADILVEALERQGVTTVFAYPGGASMEIHQALTRSAAIRNVLPRHEQGGVFAAEGYARSSGLPGVCIATSGPGATNLVSGLADALMDSVPVVAITGQVPRRMIGTDAFQETPIVEVSRSITKHNYLILDVDDIPRVVAEAFFVATSGRPGPVLIDIPKDVQQQLAVPNWDEPVNLPGYLARLPRPPAEAQLEHIVRLIMEAQKPVLYVGGGSLNSSAELRRFVELTGIPVASTLMGLGTFPIGDEYSLQMLGMHGTVYANYAVDNSDLLLAFGVRFDDRVTGKLEAFASRAKIVHIDIDSAEIGKNKQAHVSVCADLKLALKGINMILEEKGVEGKFDLGGWREEINVQKHKFPLGYKTFQDAISPQHAIEVLDELTNGDAIVSTGVGQHQMWAAQFYKYKRPRQWLTSGGLGAMGFGLPAAIGAAVANPGAVVVDIDGDGSFIMNVQELATIRVENLPVKILLLNNQHLGMVVQLEDRFYKSNRAHTYLGDPSSESEIFPNMLKFADACGIPAARVTKKEELRAAIQRMLDTPGPYLLDVIVPHQEHVLPMIPSNGSFKDVITEGDGRTRY
- Lowest % injury (soybean plants [1]): 75%
- Lowest % injury Chlorimuron (soybean plants [2]): 5%
- Lowest % injury Imazapyr (soybean plants [2]): 10%
- Lowest % injury Rimsulfuron (soybean plants [2]): 80%
- Lowest % injury Thifensulfuron-methyl (soybean plants [2]): 5%
